From the nanobody polyreactivity screen of Harvey et al. (2022)

Test: yeast display, Sf9 membrane polyspecificity reagent, FACS + sequencing; frameworks hold sequencing errors
Procedure, shortened: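 Sorting gates, low and high (top ~1%), were placed on anti-HA fluorescence to track expression and on streptavidin fluorescence to track reagent binding. A clone's polyreactivity label is taken from the gate it came out of. The reagent was 10% biotinylated, detergent-solubilized Sf9 membrane, applied for 1 hour at 4 °C to galactose-induced yeast display cells.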

QVQLVESGGGLVQAGGSLRLSCAASGIIFTYYAMGWYRQAPGKERELVARISSSGGRTYYADSVKGRFTISRDNAKNTVYLQMNSLKPEDTAVYYCNAVTTKSFHRYDYWGQGTQVTVSS
polyreactivity (PSR sort gate): high polyreactivity

QVQLVESGGGLVQAGGSLRLSCAASGIIFVDYVMGWYRQAPGKERELVAAITYTGGSTYYADSVKGRFTISRDNAKNTVYLQMNSLKPEDTAVYYCAARRKHRFFPAYYYWGQGTQVTVSS
polyreactivity (PSR sort gate): high polyreactivity

QVQLVESGGGLVQAGGSLRLSCAASGIIFVENAMGWYRQAPGKERELVASGDSTYYADSVKGRFTISRDNAKNTVYLQMNSLKPEDTAVYYCAVDHYSARLLARYDYWGQGTQVTVSS
polyreactivity (PSR sort gate): low polyreactivity

QVQLVESGGGLVQAGGSLRLSCAASGIIFVKYAMGWYRQAPGKERELVAAINWRTGRTYYADSVKGRFTISRDNAKNTVYLQMNSLKPEDTAVYYCAADVGIVIRLGRTEESGYYWGQGTQVTVSS
polyreactivity (PSR sort gate): low polyreactivity

QVQLVESGGGLVQAGGSLRLSCAASGIIFVKYVMGWYRQAPGKERELVAAISLGGGSTYYADSVKGRFTISRDNAKNTVYLQMNSLKPEDTAVYYCAAVRWTSRSRYDYWGQGTQVTVSS
polyreactivity (PSR sort gate): high polyreactivity

QVQLVESGGGLVQAGGSLRLSCAASGIIFVKYVMGWYRQAPGKERELVAAITGTGRTNYADSVKGRFTISRDNAKNTVYLQMNSLKPEDTAVYYCNARQAGTRYKYGYYGRYYWGQGTQVSVSS
polyreactivity (PSR sort gate): high polyreactivity

QVQLVESGGGLVQAGGSLRLSCAASGIIFVRYVMGWYRQAPGKERELVAAINWSGGSTYYAYSVKGRFTISRDNANNTVYLQMNSLKPEDTAVYYCAAGSARDDDYWGQGTQVPVSS
polyreactivity (PSR sort gate): high polyreactivity

QVQLVESGGGLVQAGGSLRLSCAASGIIFVSYDMGWYRQAPGKERELVAAINRGGRTYYADSVKGRFTISRDNAKNTVYLQMNSLKPEDTAVYYCAAQFHFRPFSWTYDYWGQGTQVTVSS
polyreactivity (PSR sort gate): high polyreactivity

QVQLVESGGGLVQAGGSLRLSCAASGIIFVTYAMGWNRQAPGKEREFVAGINWNGGSTYYADSVKGRFTISRDNAKNTVYLQMNSLKPEDTAVYYCNAENYRVRQRSSVKYDYWGQVTQVTVSS
polyreactivity (PSR sort gate): low polyreactivity

QVQLVESGGGLVQAGGSLRLSCAASGIIFVYNAMGWYRQAPGKERELVAVISFIGDSTYYADSVKGRFTISRDNAKNTVYLQMNSLKPEDTAVYYCAADYYLPYWFFVGYDYWGQGTQVTVSS
polyreactivity (PSR sort gate): low polyreactivity

QVQLVESGGGLVQAGGSLRLSCAASGIIFWAYALGWYRQAPGKERELVAVISRGGSTNYADSVKGRFTISRDNAKNTVYLQMNSLKPEDTAVYYCAARYGWGQGTQVTVSS
polyreactivity (PSR sort gate): high polyreactivity

QVQLVESGGGLVQAGGSLRLSCAASGIIFWAYAMGWYRQAPGKERELVAVISRGGSTNYADSVKGRFTISRDNAKNTVYLQMNSLKPEDTAVYYCAARYGWGQGTQVTVSS
polyreactivity (PSR sort gate): high polyreactivity

QVQLVESGGGLVQAGGSLRLSCAASGIIFWDNAMGWYRQAPGQDRELVASINYSGGSTYYADSVKGRFTISRDNAKNTVYLQMNSLKPEDTAVYDCAARTVTLDDWDYAYDYWGQGTQVTVSS
polyreactivity (PSR sort gate): low polyreactivity

QVQLVESGGGLVQAGGSLRLSCAASGIIFWRYAMGWYRQAPGKERELVAAISSSGSTYYADSVKGRFTISRDNAKNTVYLQMNSLKPEDTAVYYCAAYSYPAGEYDYWGQGTQVTVSS
polyreactivity (PSR sort gate): low polyreactivity

QVQLVESGGGLVQAGGSLRLSCAASGIIFWRYAMGWYRQAPGKERELVAGITSRGGSTYYADSVKGRFTISRDNAKNTVYLQMNSLKPEDTAVYYCNADWYGQLWWGVDYWGQGTQVTVSS
polyreactivity (PSR sort gate): high polyreactivity

QVQLVESGGGLVQAGGSLRLSCAASGIIFWWYAMGWYRQAPGKERELVAAISGTGGSTYYADSVKGRFTISRDNAKNTVYFQMNSLKPEDTAVYYCAARGKSSSYYDYDYWGQGTQVTVSS
polyreactivity (PSR sort gate): low polyreactivity

QVQLVESGGGLVQAGGSLRLSCAASGIIFWYNAMGWYRQAPGKERELVASISTGGRTYYADSVKGRFTISRDNAKYTVYLQMNSLKPEDTAVYYCAAASRVGFLYYYWGQGTQVTVSS
polyreactivity (PSR sort gate): low polyreactivity

QVQLVESGGGLVQAGGSLRLSCAASGIIFWYYAMVWYRHAPGKERELVASISGTGGTTYYADSVKGRFTISRDNAKNTVYLQMNSLKPEDTAVYDCSALSGQHDYDYWGQGTQVTVSS
polyreactivity (PSR sort gate): low polyreactivity

QVQLVESGGGLVQAGGSLRLSCAASGIIFYANAMGWYRQAPGKERELVAAISWSGSSTYYADSVKGRFTISRDNAKNTVYLQMNSLKPEDTAVYYCNKATSSVRYLKYYYWGQGTQVTVSS
polyreactivity (PSR sort gate): high polyreactivity

QVQLVESGGGLVQAGGSLRLSCAASGIIFYAYAMGWYRQAPGKEREFVAAINNSGGRTYYADSVKGRFTISRDNAKNTVYLQMNSLKPEDTAVYYCAVYSYYRRTYRREMDYWGQGTQVTVSS
polyreactivity (PSR sort gate): high polyreactivity

QVQLVESGGGLVQAGGSLRLSCAASGIIFYAYDMGWYRQAPGKERELVAAITFSAVSTYYADSVKGRFTISRDNAKNTVYLQMNSLKPEDTAVYYCAAEAYKHGVWDYDYWGQGTQVTVSS
polyreactivity (PSR sort gate): low polyreactivity

QVQLVESGGGLVQAGGSLRLSCAASGIIFYEYTMGWYRQAPGKERELVARISLRGGNTYYADSVKGRFTISRDNAKNTVYLQMNSLKPEDTAVYYCNADLYRQYASRYHYWGQGTQVTVSS
polyreactivity (PSR sort gate): high polyreactivity

QVQLVESGGGLVQAGGSLRLSCAASGIIFYEYVMGWYRQAPGKERELVAAINRSGGSTYYADSVKGRFTISRDNAKNTVYLQMNSLKPEDTAVYYCAASSTYDGRKYYYWGQGTQVTVSS
polyreactivity (PSR sort gate): high polyreactivity

QVQLVESGGGLVQAGGSLRLSCAASGIIFYGNAMGWYRQAPGKERELVAAISWSGSSTYYADSVKGRFTISRDNAKNTVYLQMNSLKPEDTAVYYCNKATSSVRYLKYYYWGQGTQVTVSS
polyreactivity (PSR sort gate): high polyreactivity

QVQLVESGGGLVQAGGSLRLSCAASGIIFYGNAMGWYRQAPGKERELVAAITWSGGSTYYADSVKGRFTISRDNAKNTVYLQLTSLKPEDTAVYYCAADFLYGFYYWGQGTQVTVSS
polyreactivity (PSR sort gate): low polyreactivity

QVQLVESGGGLVQAGGSLRLSCAASGIIFYGYAMGWYRQAPGKERELVAAISSGGGTNYADSVKGRFTISRDNAKNTVYLQMNSLKPEDTAVYYCAAGGKKRDDYWGQGTQVTVSS
polyreactivity (PSR sort gate): high polyreactivity

QVQLVESGGGLVQAGGSLRLSCAASGIIFYGYAMGWYRQAPGKERELVATIRDSGAGTYYADSVKGRFTISRDNAKNTVYLQMNSLKPEDTAVYYCAATGWIRYDSWGQGTQVTVSS
polyreactivity (PSR sort gate): low polyreactivity

QVQLVESGGGLVQAGGSLRLSCAASGIIFYHNTMGWYRQAPGKERELVAAISGSGGSTYYADSVKGRFTISRDNEKNTVYLQMKSLKPEDTAVYYCAAYRRRYPGFDYWGQGTQVTVSS
polyreactivity (PSR sort gate): high polyreactivity

QVQLVESGGGLVQAGGSLRLSCAASGIIFYHYAMGWYRQPPGKERELVAAITWSGGTTYYADSVKGRFTISRDNAKNTVYLQMNSMKPEDTAVYYCNADYVPYGFDYWGQGTQVTVSS
polyreactivity (PSR sort gate): low polyreactivity

QVQLVESGGGLVQAGGSLRLSCAASGIIFYIYAMGWYRQAPGKERELVAAISSGGNTYYADSVKGRFTISRDNAKNTVYLQMNSLKPEDTAVYYCAAYSRKVSFQYRYDYWGQGTQVTVSS
polyreactivity (PSR sort gate): high polyreactivity

QVQLVESGGGLVQAGGSLRLSCAASGIIFYIYAMGWYRQAPGKERELVAAITSSGGSTNYADSVKGRFTISRDNAKNTVYLQMNSLKPEDTAVYYCAAAYRPWQEFYWGQGTQVTVSS
polyreactivity (PSR sort gate): high polyreactivity

QVQLVESGGGLVQAGGSLRLSCAASGIIFYIYTMGWYRQAPGKERELVAAINRSGFRTYYADSVKGRFTISRDNAKNTVYLQMNSLKPEDTAVYYCAAGTGSRDYYWGQGTQVTVSS
polyreactivity (PSR sort gate): high polyreactivity

QVQLVESGGGLVQAGGSLRLSCAASGIIFYIYTMGWYRQAPGKERELVAAINRSGSRTYYADSVKGRFTISRDNAKNTVYLQMNSLKPEDTAVYYCAAGTGSRDDYWGQGTQVTVSS
polyreactivity (PSR sort gate): high polyreactivity

QVQLVESGGGLVQAGGSLRLSCAASGIIFYKYAMGWYRQAPGKERELVAAITSGGGRTYYADSVKGRFTISRDNPKNSVYLQMNSLKPEDTAVYYCAATRPATYAAYDYWGQGTQVTVSS
polyreactivity (PSR sort gate): high polyreactivity

QVQLVESGGGLVQAGGSLRLSCAASGIIFYKYTMGWYRQAPGKERELVAAITKSGVRTYYADSVKGRFTISRDNAKNTVYLQMKSLKPEDTSVYYCAAKTPTKDRGSDFDYWGQGTQVTVSS
polyreactivity (PSR sort gate): high polyreactivity

QVQLVESGGGLVQAGGSLRLSCAASGIIFYPNAMGWYRQAPGKERELVAAITGSGGSTYYADSVKGRFTISRDNAKNTVYLQMNSLKPEDTAVYYCNARVYWYYPMDYWGQGTQVTVSS
polyreactivity (PSR sort gate): low polyreactivity

QVQLVESGGGLVQAGGSLRLSCAASGIIFYQYAMGRNRQAPGKERELVAAISSGVNTYYADSVKGRFTISRDNAKNTVYLQMNSLKPEDTAVYYCAAEKGRLYDWFDIYYIEYYYWGQGTQVTVSS
polyreactivity (PSR sort gate): high polyreactivity

QVQLVESGGGLVQAGGSLRLSCAASGIIFYQYAMGWYRQAPGKERELVAAINTSGGSTYADSVKGRFTISRDNAKNTVYLQMNSLKPEDTAVYYCAASYRYVRWKWGYNYWGQGTQVTVSS
polyreactivity (PSR sort gate): high polyreactivity

QVQLVESGGGLVQAGGSLRLSCAASGIIFYRNAMGWYRQAPGKERELVAGITSGGSTYYADSVKGRFTISRDNAKNTVYLQMNSLKPEYTAVYYCAAYYRASQRYLQYGYWGQGTQVTVSS
polyreactivity (PSR sort gate): high polyreactivity

QVQLVESGGGLVQAGGSLRLSCAASGIIFYRYAMGWYRQAPGKERELVAAISASGDSTYYADSVKGRFTISRDNAKNTVYLQMNSLKPEDTAVYYCAADYGYRYDYWGQGTQVTVSS
polyreactivity (PSR sort gate): low polyreactivity

QVQLVESGGGLVQAGGSLRLSCAASGIIFYRYAMGWYRQAPGKERELVSAITWSGVSTSYADSVKGRFTISRDNAKNTVYLQMNSLKPEDTAVYYCAATNYGTFWGGQSERYDYWGQGTQVTVSS
polyreactivity (PSR sort gate): low polyreactivity

QVQLVESGGGLVQAGGSLRLSCAASGIIFYRYAMGWYRQAPGKESELVAAITWSGVSTSYADSVKGRFTISRDNAKNTVYLQMNSLKPEDTAVYYCNKDPGTLYGDMDSWGQGTQVTVSS
polyreactivity (PSR sort gate): low polyreactivity

QVQLVESGGGLVQAGGSLRLSCAASGIIFYRYAMGWYRQAPGKEWELVAAITWRGGSTYYADSVKGRFTISRDNAKNTVYLQMTSLKPEDTAVYYCAARRRATYEFDYWGQGTQVTVSS
polyreactivity (PSR sort gate): high polyreactivity
